# Measured values: the RNAGym collection of RNA variant scans (doi:10.1073/pnas.2313332121)
# Fewer inactive variants are shown than the library holds.
# B1: TPR 5TU (parent)
# chain: GGAUCUUCUCGAUCUAACAAAAAAGACAAAUCUGCCACAAAGCUUGAGAGCAUCUUCGGAUGCAGAGGCGGCAGCCUUCGGUGGCGCGAUAGCGCCAACGUUCUCAACUAUGACACGCAAAACGCGUGCUCCGUUGAAUGGAGUUUAUCAUG
# Variants of: B1
# Assay: polymerase ribozyme fitness, log enrichment relative to wild type (log ratio); higher = more active; in vitro selection for triplet polymerase activity
# Procedure, shortened: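 Input and output libraries were sequenced on Illumina after a single in vitro selection round, run in triplicate on PCR-built, transcribed mutant libraries of each subunit of a heterodimeric triplet polymerase ribozyme. Selection annealed libraries to a biotinylated primer, the partner subunit and triplets, incubated them frozen at −7 °C, then gel-excised extended constructs for streptavidin-bead capture and RT-PCR. Genotypes with ≥10 input reads and ≥1 read per output were kept. Fitness is the logarithm, taken in base 2, of genotype enrichment divided by wild-type enrichment, using inverse-variance-weighted replicate averages.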
row,Variant,polymerase ribozyme fitness (log ratio)
1,GGAUCUUCUCGAUCUAACAAAAAAGACAAAUCUGCCACAAAGCUUGAGAGCAUCUUCGGAUGCAGAGACGGCAGCCUUCGGUGGCGUGAUAGCGCCAACGUUCUCAACUAUGAAACGCAAAACGCGUGCUCCGUUGAAUGGAGCUUAUCAUG,-4.11
2,GGAUCUUCUCGAUCUAACAAAAAAGACAAAUCUGCCACAAAGCUUGAGAGCAUCUUCGGAUGCAGAGACGGCAGUCUUCGGUGGGGCGAUAGCGCCAACGUUCUCAACUAUGACACGCAAAACGCGUGCUCCGUUUAAUGGAGUUUAACAUG,≤ -4.2
3,GGAUCUUCUCGAUCUAACAAAAAAGACAAAUCUGCCACAAAGCUUGAGAGCAUCUUCGGAUGCAGAGACGGCAGCCUUCGGUGGCGCGAUAGCGCCAACGUUCUCAACUAUGACACGCAAAACGCGUGCUCCGUUGAGUGGAGUUUAUCAUG,≤ -4.2
4,GGAUCUUCUCGAUCUAACAAAAAAGACAAAUCUGCCACAAAGCUUGAGAGCAUCUUCGGAUGCAGAGACGGCAGCCUUCGGUGGCGCGAUAGUGCCAUCGUUCUCAACUAUGACACUCAAAACGCGUGCUCCGUUGAAUGGAGUUUAUCAUG,≤ -4.2
5,GGAUCUUCUCGAUCUAACAAAAAAGACAAAUCUGCCACAAAGCUUGAGAGCAUCUUCGGAUGCAGAGACGGCAGCCUUCGGUGGUGCGAUAGCGCCUACGUUCUCAUCUAUGACACGCAAAACGCGUACUCUGUUGAAUGGAGUUUAUCAUG,≤ -4.2
6,GGAUCUUCUCGAUCUAACAAAAAAGACAAAUCUGCCACAAAGCUUGAGAGCAUCUUCGGAUGCAGAGACGGCAGCCUUCGGUGGCGAGAUAGCGCCAACGUUCUCCACUAUGACACUCAAAACGCGUGCUCCGUUGAAUGGAGUUUAUCAUG,≤ -4.2
7,GGAUCUUCUCGAUCUAACAAAAAAGACAAAUCUGCCACAAAGCUUGAGAGCAUCUUCGGAUGCAGAGACGGCAGCAUUCGGUGGCACGAUAGCGCCAACGUCCUCAACUAUGACACGCAAAACCCGUGCUCCGUUGAAUGGAGUUUAUCAUA,≤ -4.2
8,GGAUCUUCUCGAUCUAACAAAAAAGACAAAUCUGCCACAAAGCUUGAGAGCAUCUUCGGAUGCAGAGACGGCAGCCUUCGGUGGCGCGAUAGCGCCAACGUUCUCAACUAUGACACGCAAAGCGCGUGCUCCCUUGAAUGGAGUUUAUCAUG,≤ -4.2
9,GGAUCUUCUCGAUCUAACAAAAAAGACAAAUCUGCCACAAAGCUUGAGAGCAUCUUCGGAUGCAGAGACGGCAGCCUUCGGUGGCGCGAUAGUGCCAACGUUCUCAACUAUGACACGCAAAACGCGUGCUCCGUUGAAUGGAGUUUAUCAUG,-4.04
10,GGAUCUUCUCGAUCUAACAAAAAAGACAAAUCUGCCACAAAGCUUGAGAGCAUCUUCGGAUGCAGAGACGGUAGCCUUCGGUGGCGCGAUAGCGCCAACGUUCUCAACUAUGACACGCAAAACGCGUGCUCCGUUGAAUGGAGUUUAUCAUG,-4.15
11,GGAUCUUCUCGAUCUAACAAAAAAGACAAAUCUGCCACAAAGCUUGAGAGCAUCUUCGGAUGCAGAGAGGGCAGCCUUCAGUGGCGCGAUAGCGCCAACGUUCGCAACUAUGACACGCAAAACGCGUGCUCCGUUGAAUGGAGUUUAUCAUG,≤ -4.2
12,GGAUCUUCUCGAUCUAACAAAAAAGACAAAUCUGCCACAAAGCUUGAGAGCAUCUUCGGAUGCAGAGACGGCAGCCUUUGGUGGCGCGAUAGCGCCAACGUUCUCAACUAUGACACGCAAAACGCGUGCUCCGUUGAAGGGAGUUCAUCAUG,≤ -4.2
13,GGAUCUUCUCGAUCUAACAAAAAAGACAAAUCUGCCACAAAGCUUGAGAGCAUCUUCGGAUGCAGAGACGGCACCCUUCGGUGGCGCAAUAGCGCCAACGUUCUCAACUAUGACACGCAAAACGCGUGCUCCGUUGAAUGGAGUUUAUCAUG,≤ -4.2
14,GGAUCUUCUCGAUCUAACAAAAAAGACAAAUCUGCCACAAAGCUUGAGAGCAUCUUCGGAUGCAGAGACGGCAGCCUUCGGUGGCGCGAUAGGGCCAACGUUCUCAACUAUGACACGCAAAACGCGUGAACCGUUGAAUGGAGUUUAUCAUG,≤ -4.2
15,GGAUCUUCUCGAUCUAACAAAAAAGACAAAUCUGCCACAAAGCUUGAGAGCAUCUUCGGAUGCAGAGACGGCAGCCUUCGGUGGUGCGAUAGCGCCAACGUUCUCAACUAUGACACGCAAAACGCGUGCUCCGUUGAAUGGAGUUUAUCAUG,-3.48
16,GGAUCUUCUCGAUCUAACAAAAAAGACAAAUCUGCCACAAAGCUUGAGAGCAUCUUCGGAUGCAGAGACGGCAGCCUUCGGUGGGGCGAUAGCGCCAACGUUCUCAACUAUGACACGCAAAACGCGUGCUCCGUUGAAUGGAGUUUAUCAUG,≤ -4.2
17,GGAUCUUCUCGAUCUAACAAAAAAGACAAAUCUGCCACAAAGCUUGAGAGCAUCUUCGGAUGCAGAGACGGCAGCCUUCGGUGGCGCGAUAGCGCCAACGUUCUCAACUAUGACACGCAAAAUGCGUGCUCCGUUGAAUGGAGUUUAUCAUG,-3.89
18,GGAUCUUCUCGAUCUAACAAAAAAGACAAAUCUGCCACAAAGCUUGAGAGCAUCUUCGGAUGCAGAGACGGCAGCCUUCGGUGGCGCGAUAGCGCCAACGUUCUCCACUAUGACACGCAGAACGCGUGCUCCGUUGACUGGAGUUUAUCAUG,≤ -4.2
19,GGAUCUUCUCGAUCUAACAAAAAAGACAAAUCUGCCACAAAGCUUGAGAGCAUCUUCGGAUGCAGAGACGGCAGCCUUCGGUGGCGCGAUAGCGCUAACGUUCUCAACUAUGACACGCAAAACGCGUGCUCGGUUGAAUGGAGUUUAUCAUG,≤ -4.2
